These results are taken from publication PMC6406907, “A H2AX–CARP-1 Interaction Regulates Apoptosis Signaling Following DNA Damage” (Cancers, 2019).

The test system of experiment [1] is HeLa cells. The experiment is described as follows: MTT cell viability/growth inhibition, HeLa. To be noted: HeLa CARP-1 (Δ600–650) vs WT CARP-1-expressing counterparts, mean of three experiments. In kind it is cell-based, human. The protocol: (§1) Routine maintenance and culture of MDA-MB-468 (lacking estrogen receptor; ER and having mutant p53) human triple-negative breast cancer (TNBC) cells, human cervical cancer HeLa, human kidney cancer UOK 262, non-small-cell lung cancer H1975, and HCC827 cells was carried out essentially as described previously. Generation and characterization of MDA-MB-468 cells expressing reduced CARP-1 was described previously. The stable sublines were generated by transfecting the MDA-MB-468 and Hela cells with the pcDNA3 vector, pcDNA3-CARP-1 wild-type (WT)-myc-His clone 6.1.2, pcDNA3-CARP-1(Δ600–650)-myc-His, pcDNA3-EGFP, pcDNA3-EGFP-H2AX (1–35), or pcDNA3-EGFP-CARP-1 (636–650) plasmids, followed by selection in the presence of 800 μg/mL neomycin using described methods. The cell lysates from wild-type, untransfected cells, neomycin-resistant pools, or individual sublines were then subjected to MTT-based viability, confocal, immunoprecipitation (IP), and Western blot (WB) analyses as below.
(§2) The cell growth inhibition was assessed using an MTT assay following the established protocols described by us previously.
(§3) Here, we utilized human TNBC MDA-MB-468 and human cervical cancer HeLa cells to conduct an MTT-based dose-response analysis using Adriamycin and CFM compounds. […] Since Adriamycin, CFM-4, and CFM-4.16 have molecular masses of 543.3, 404.9, and 440.3, respectively, we chose to use an equimolar dose of each compound in the MTT assays. […] Prior reports established that phosphorylation of H2AX at serine 139 (γ-H2AX) is involved in DNA damage repair and apoptotic signaling by ATM/ATR and JNKs, respectively. Next, the MDA-MB-468, HeLa, and the kidney cancer UOK 262 cells were treated with a 10 μM dose of the CFM-4.16 or Adriamycin for various time periods. The cell lysates from the control, untreated, and treated cells were analyzed by WB for expression of CARP-1, phospho-JNK1/2, phospho-H2AX, and poly ADP ribose polymerase (PARP) proteins. […] The H2AX activation is also indicative of DNA damage and involves pro-apoptotic JNKs. Our data in Figure 1C and Figure S1B,C (Supplementary Materials) also show activation of JNKs; however, a robust JNK activation is co-incident with H2AX phosphorylation following treatments with Adriamycin or CFM-4.16.
Figure 8 Ectopic expression of TAT-CARP-1 (636–650) peptide results in enhanced viabilities of Adriamycin-treated cells. MDA-MB-468 (A) or HeLa (B) cells were pre-incubated with 300 μg/mL indicated peptides for 72 h, followed by treatments with the noted dose and time of Adriamycin. Determination of viable/live cells was carried out using an MTT assay as described in Section 2. The bar charts in panels A and B represent means of three and two independent experiments, respectively; bars, SE. (C) Indicated cells were either pre-incubated with 6 μg/mL indicated peptides for 72 h or not (Control), followed by treatments with Adriamycin as noted. Cells were then processed for immunofluorescence staining for TAT-CARP-1 peptide (red), γH2AX (green), and DAPI (blue) as detailed in Section 2 and Figure S3 (Supplementary Materials). Insets in C show enlarged areas of respective photomicrographs to indicate presence of TAT-CARP-1 peptide and γH2AX in respective columns. The insets in the top and middle rows of the merge column show co-localization of TAT-CARP-1 peptide, and γH2AX (magnification: 250×).
Figure S7. Disruption of H2AX interaction with CARP-1 results in enhanced viabilities of CFM-4, CFM-4.16, or Adriamycin-treated cells in part due to reduced γH2AX and apoptosis. (A,B,C) Indicated HeLa cell lines were treated with DMSO (Control), noted dose and time of Adriamycin, CFM-4, or CFM-4.16 compounds. Determination of viable/live cells was carried out by MTT assay as in methods. The columns in bar charts in panels A, B, C represent means of three independent […]
experiments; bars, SE. […]

For experiment [2], the system named is MDA-MB-468 cells. The experiment is described as follows: MTT cell viability/growth inhibition, MDA-MB-468. To be noted: MDA-MB-468 CARP-1 (Δ600–650) vs WT CARP-1-expressing counterparts, MTT, mean of three experiments. In kind it is cell-based, human. On the procedure:
as §1, §2, §3
Figure 7 Disruption of H2AX interaction with CARP-1 results in enhanced viabilities of CFM-4-, CFM-4.16-, or Adriamycin-treated cells in part due to reduced apoptosis. (A,C,D) Indicated MDA-MB-468 cell lines were treated with DMSO (Control), or with the noted dose and time of Adriamycin, CFM-4, or CFM-4.16 compounds. Determination of viable/live cells was carried out by MTT assay as described in Section 2. (B,E,F) Cell lysates derived from vehicle DMSO (Control), or CFM-4-, CFM-4.16-, or Adriamycin-treated cells were added to the wells that had immobilized fluorogenic substrates of noted caspases. The fluorescence released from the activated caspase-dependent cleavage of respective substrate was detected by a plate reader at the excitation and emission wavelengths of 380 nm and 460 nm, respectively, as detailed in Section 2. The columns in bar charts in panels A, C, D and B, […] represent means of three and two independent experiments, respectively; bars, SE. For panels C and D, * p < 0.05, **p < 0.01 and *** p ≤ 0.001 relative to the respective EGFP vector subline. For panels E and F, *** p ≤ 0.05 relative to the respective EGFP vector subline.
Figure 8 Ectopic expression of TAT-CARP-1 (636–650) peptide results in enhanced viabilities of Adriamycin-treated cells. MDA-MB-468 (A) or HeLa (B) cells were pre-incubated with 300 μg/mL indicated peptides for 72 h, followed by treatments with the noted dose and time of Adriamycin. Determination of viable/live cells was carried out using an MTT assay as described in Section 2. […]

Experiment [3] has as its target CARP-1 (636–650) peptide, biotin-labelled (human) (UniProt Q8IX12). The experiment is described as follows: SPR; SPRi (PlexArray HT); CARP-1 (636–650) peptide printed on bare gold-coated PlexArray Nanocapture chip, blocked with 5% non-fat milk; PBST pH 7.4, 25 °C; global fit to a 1:1 interaction model. In general terms: In SPR one partner is held on a chip, and binding of the other changes the refractive index at the surface.

Experiment [4] relates to Gst-H2AX. The experiment is described as follows: Gst-pulldown with Gst-H2AX. In kind it is binding, human. To be noted: E. coli-expressed, 4 °C, 2 h, WB anti-HA, Figure 5A. The protocol: Logarithmically growing cells were either untreated or treated with different agents for various time periods. The cells were lysed to prepare protein extracts. IP was carried out by incubating approximately 1 mg of the protein lysate with appropriate antibodies. The immunoprecipitates were then analyzed by SDS-PAGE, followed by WB with respective, interacting protein. For Gst-pulldown, Gst-H2AX or various His-TAT-HA-tagged CARP-1 peptides were generated in Escherichia coli (E. coli) BL21 cells essentially as described by us previously. Briefly, the competent E. coli BL-21 (DE3) pLysS cells were transformed separately with various recombinant pGEX-4T-1 or pTAT-HA constructs. The transformed cells were then subjected to selection by combined presence of ampicillin and chloramphenicol; various isolates for each transformation were obtained and bacterial lysates were characterized for expression of fusion peptides. Cells from each isolate were grown in 4 mL of LB medium containing ampicillin only until the optical density (OD)600 reached 0.4–0.8. Expression of fusion peptides was induced over 2–4 h incubation periods after Isopropyl β-D-1-thiogalactopyranoside (IPTG) addition. The cells were harvested, and pellets were stored at −80 °C overnight. […]

Consider `O=C1N(Cc2ccccc2Cl)c2ccccc2C12NN=C(c1ccccc1)S2` (stereo not drawn) [CFM-4], for which the “growth inhibition of CARP-1 (Δ600–650)-expressing cells” value in experiment [1] and in experiment [2] was “resistant to inhibition by CFM-4 or ADR” in each case.
With “H2AX (1–35) peptide (from UniProt P16104 1-35)”, in experiment [3], the Kd (in general, the constant that tells how readily two partners part at equilibrium) was determined as 126 nM; the dissociation rate constant (koff) (in general, the first-order rate constant of dissociation) was determined as 0.000292 s⁻¹; the on-rate constant (kon) (as a rule, the rate constant with which the complex forms) is 2320 M⁻¹ s⁻¹.

B1: His-TAT-HA-CARP-1 (552–654): E. coli-expressed His-TAT-HA-tagged CARP-1 peptide (peptide)
chain: RPEETHKGRTVPAHVETVVLFFPDVWHCLPTRSEWETLSRGYKQQLVEKLQGERKEADGEQDEEEKDDGEAKEISTPTHWSKLDPKTMKVNDLRKELESRALS
modifications: left off: His, end not stated, kept | TAT, end not stated, kept | HA, end not stated, kept
notes: E. coli-expressed His-TAT-HA-tagged CARP-1 peptide
For the molecule B1, the “binding with Gst-H2AX protein” value in experiment [4] is listed as “bound with Gst-H2AX protein”.
